This is an account of results in patent publication US20110251266, “APTAMER FOR NGF AND USE THEREOF” (Shionogi & Co., Ltd., published 2011).

Numbering of substitutions follows the chain as printed.

For data set [1], the target named is T1, beta-NGF (nerve growth factor) (Homo sapiens, UniProt P01138 P01138:122-241). In words: cell_activity; neurite outgrowth, Neuroscreen-1 cells. The settings on record: tags: R&D Systems; chain copies: 2. Here is the method: (§1) The neurite outgrowth inhibitory activity of aptamer was evaluated by using Neuroscreen-1 cell, which is a subclone of PC-12 cells. 2500 Cells per well were cultured for one day in an RPMI-1640 medium containing 2.5% horse serum and 1.25% fetal bovine serum in a 96 well flat-bottom plate coated with collagen type IV. A mixed solution of NGF (final concentration 15 ng/ml or 1.1 nM) prereacted in a serum-free RPMI-1640 medium at room temperature or 37° C. for 30 min to 1 hr and an aptamer (final concentration 500-3 nM) was added. Two or three days later, the cytoplasm and nuclei were stained using Cellomics Neurite Outgrowth Kits (manufactured by Thermo Scientific), and neurite length per cell was measured by Cellomics ArrayScan VTI (manufactured by Thermo Scientific). With the neurite length per cell obtained by culturing the cell for 2 days with the addition of NGF alone as inhibitory activity 0%, and that of the cell obtained by NGF free culture as inhibitory activity 100%, the inhibitory activity of the aptamer was calculated from the neurite length per cell obtained by culturing with the addition of NGF and the aptamer in mixture. […] When the inhibitory activity was 0% or below, ‘0%’ is indicated. When it was not less than 100%, ‘100%’ is indicated. The 50% inhibitory concentration was determined from the concentrations at two, above and below points sandwiching the 50% inhibitory activity.
T1 sequence (P01138 122-241, one chain of several): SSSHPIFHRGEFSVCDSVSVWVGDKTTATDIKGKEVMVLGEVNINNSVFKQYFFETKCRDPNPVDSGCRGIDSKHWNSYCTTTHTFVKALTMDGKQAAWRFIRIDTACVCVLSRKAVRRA

In data set [2] the target is T1, beta-NGF (nerve growth factor). In words: SPR; blocks NGF-TrkA and NGF-P75. As to conditions: tags: R&D Systems; chain copies: 2. On the procedure:
As directed in BIAcore Company's protocol, Protein A (21181, PIERCE) was immobilized on a CM5 sensor chip. About 1100 RU of human Trk A-Fc fused with the Fc portion of IgG (175-TK, R&D systems) was immobilized thereon. As the analyte, a mixture of NGF (0.1 μM) and each aptamer (0.33 μM) was injected after being allowed to stand for 30 minutes. […] When NGF binds stronger to a receptor than an aptamer, the aptamer may be removed and NGF may bind to the receptor. […] Using the binding amount of NGF and NGF receptor without an aptamer as 100, the binding amount of NGF and NGF receptor added with an aptamer was determined as a correction value. Here, the binding amount is the RU value at the peak top of the sensorgram of BIAcore (RU value immediately after completion of NGF injection). […] A similar experiment was performed for another receptor P75 (p75-Fc; R&D systems).

Data set [3] shares this target. In words: cell_activity; Neuroscreen-1 neurite outgrowth. As to conditions: tags: R&D Systems human NGF; chain copies: 2. On the procedure:
as §1

B1: SEQ55 aptamer (ssRNA)
RNA: GGGAGAACUUCGACCAGAAGUUUGAAAGAAACCCAAAAAUGAAUGCAACUAUGUGCGCAUACAUGGACCUCA
modifications: 2'-F all pyrimidines
As usually defined, the IC50 is the concentration that gives 50% inhibition. Low readings indicate greater potency, high ones weaker potency. Consider B1, for which inhibition in data set [1] was half-maximal at 49.9 nM (IC50). For the same molecule, in data set [2], the activity was ≥ 60 % inhibition.

B2: SEQ12 aptamer (ssRNA)
RNA: GGGAAGCCUGUGGAGCUGCGAAACAGUGAAACAAACCACAGACUGAGAAAGCAGUAACAGCAUUGUCACCAACAACUGG
modifications: 2'-F pyrimidines
B2 had a half-maximal inhibitory concentration (IC50) in data set [3] of 43.4 nM.

B3: SEQ40 aptamer (ssRNA)
RNA: GGGAGAACUUCGACCAGAAGUUUGAAAAAAACCCAGGAAAAUGGAAGACGUAUGUGCGCAUACAUGGAUCCUCA
modifications: 2'-F pyrimidines
The molecule B3 returned an IC50 in data set [3] of 2.4 nM.

B4: SEQ42 aptamer (ssRNA)
RNA: B3 RNA with G36A, G37A, A39G, A41G, U42C, G43A, A45C, C49G, G50A
modifications: 2'-F pyrimidines
As for B4, the midpoint of inhibition in data set [3], the IC50, lay at 6.6 nM.

B5: SEQ64 aptamer (ssRNA)
RNA: B3 RNA with A28G, G36A, G37A, A39C, A41U, G43A, A45C, G47C, G50A
modifications: 2'-F pyrimidines
In data set [3], B5 came in with a half-inhibitory concentration (IC50) of 4.8 nM.

B6: SEQ53 aptamer (ssRNA)
RNA: GGGAGAACUUCGACCAGAAGUUUGAAAGGAACCCAAAAACACAAAAUGUCUAUGUGCGCAUACAUGGAUCCUCA
modifications: 2'-F all pyrimidines
For the molecule B6, the IC50 in data set [1] was < 10 nM. Besides, in data set [2], the activity is ≥ 60 % inhibition.

B7: SEQ49 aptamer (ssRNA)
RNA: GGGAGAACUUCGACCAGAAGUGAAAGAAACUCCCAAGACGGUAACGAAAGUAUGUGCGCAUACAUGGAUCCUCA
modifications: 2'-F pyrimidines
Take B7: the midpoint of inhibition in data set [3], the IC50, lay at 4.6 nM.

B8: SEQ50 aptamer (ssRNA)
RNA: B7 RNA with G26A, A29C, G37U, G40A, G41A, U42A, A43C, G46A, G50A
modifications: 2'-F all pyrimidines
In data set [1], B8 yielded a 50% inhibitory concentration (IC50) of 25.4 nM. For the same molecule, the activity in data set [2] is ≥ 60 % inhibition.

B9: SEQ56 aptamer (ssRNA)
RNA: B7 RNA with G37C, G40A, G41A, U42A, A43U, A44G, G46A, A47C, G50C
modifications: 2'-F all pyrimidines
As for B9, the 50% inhibitory concentration (IC50) in data set [1] is 18.8 nM.

B10: SEQ83 aptamer (ssRNA)
RNA: GGGAGAACUUCGACCAGAAGUUGAAGCUUGAAAAAAACCCAGGAUUAAACAGACAGUAUGUGCGCAUACAUGGAUCCUC
modifications: 2'-F pyrimidines
In turn, B10 gave an IC50 in data set [3] of 7.1 nM.

B11: SEQ39 aptamer (ssRNA)
RNA: GGGAGAACUUCGACCAGAAGUGUGAAAAGAACCCAAAUAAAACAACAAUGUAUGUGCGCAUACAUGGAUCCUCA
modifications: 2'-F pyrimidines
For B11, in data set [3], the concentration for half-maximal inhibition (IC50) came to 6.3 nM.

B12: SEQ59 aptamer (ssRNA)
RNA: GGGAGAACUUCGACCAGAAGUCGAAACGUUUGAAAAAAACCCAAGGAGGAUAUGUGCGCAUACAUGGAUCCUCA
modifications: 2'-F all pyrimidines
B12: the half-maximal inhibitory concentration (IC50) in data set [1] turned out to be 71.5 nM. The activity in data set [2] is ≥ 60 % inhibition.

B13: SEQ37 aptamer (ssRNA)
RNA: GGGAGAACUUCGACCAGAAGUUUGAAAGAAACCCAAAGGUGAAACAACAAUAUGUGCGCAUACAUGGAUCCUCA
modifications: 2'-F pyrimidines
On to B13, for which the 50% inhibitory concentration (IC50) in data set [3] is 6.6 nM.

B14: SEQ46 aptamer (ssRNA)
RNA: B13 RNA with G28C, G39U, G41A, A42C, A43G, A44C, C45A, A46C, C48A
modifications: 2'-F all pyrimidines
As to B14, in data set [1], the concentration for half-maximal inhibition (IC50) was found to be 25.4 nM. In addition, the activity in data set [2] was ≥ 60 % inhibition.

B15: SEQ5 aptamer (ssRNA)
RNA: GGGAAGCCUGUGGAGCUGCUUAAACAAGCAAGUGAAAAAAACCACAGCAAAUGUAAAAAGCAUUGUCACCAACAACUGG
modifications: 2'-F pyrimidines
Take B15: the 50% inhibitory concentration (IC50) in data set [3] came out at 21 nM.

B16: SEQ43 aptamer (ssRNA)
RNA: GGGAGAACUUCGACCAGAAGCUUGAAAAAACCCCAAUAUGAGAAUCAUAUAUGUGCGCAUACAUGGAUCCUCA
modifications: 2'-F all pyrimidines
On to B16, for which the IC50 in data set [1] was < 10 nM. Further, the activity in data set [2] was ≥ 60 % inhibition.

B17: SEQ6 aptamer (ssRNA)
RNA: GGGAAGCCUGUGGAGCUGCAGGAUGAAAAAAACCCAAAAUUAAAUAAAAAAUAGACGGUGCAUUGUCACCAACAACUGG
modifications: 2'-F pyrimidines
For the molecule B17, the half-maximal inhibitory concentration (IC50) in data set [3] was determined as 17.7 nM.

B18: SEQ48 aptamer (ssRNA)
RNA: GGGAGAACUUCGACCAGAAGUUUGAAAAGAACCCGAAAAACGCAUAAUAAUAUGUGCGCAUACAUGGAUCCUCA
modifications: 2'-F all pyrimidines
Turning to B18, the half-inhibitory concentration (IC50) in data set [1] was 46.4 nM. Besides, the activity in data set [2] was ≥ 60 % inhibition.

B19: SEQ35(6) (ssRNA)
RNA: GGGAAGCCUGUGGAGCUGCAGGAUGAAAAAAACCCAAA
modifications: 2'-F pyrimidines and a23, 2'-OMe at g1 g2 a4 a5 g6 g10 g12 g13 a14 g15 g18 a20 g21 g22 a29-a32 a36-a38, 5' and 3' idT
In turn, B19 yielded a half-maximal inhibitory concentration (IC50) in data set [3] of 73.5 nM.

B20: SEQ35(5) (ssRNA)
RNA: B19 RNA
modifications: 2'-F pyrimidines, 2'-OMe at g1 g2 a4 a5 g6 g10 g12 g13 a14 g15 g18 a20 g21 g22 a29-a32 a36-a38, 5' and 3' idT
B20: the half-inhibitory concentration (IC50) in data set [3] came out at 79.8 nM.

B21: SEQ35(1) (ssRNA)
RNA: B19 RNA
modifications: 2'-F pyrimidines, 2'-OMe at a4 a5 g6 g10 g12 g13 a14 g15 g18 a20 g21 g22, 5' and 3' idT
In data set [3], B21 showed an IC50 of 94.7 nM.

B22: SEQ52 aptamer (ssRNA)
RNA: GGGAGAACUUCGACCAGAAGUUUGAAAGAAACCCAAAUAUACAAAACACUAUGUGCGCAUACAUGGAUCCUCA
modifications: 2'-F pyrimidines
In turn, B22 yielded an IC50 in data set [3] of 6.7 nM.

B23: SEQ67 aptamer (ssRNA)
RNA: GGGAGAACUUCGACCAGAAGUCGAUAACGAACAAAACUCCCAAAGGAAUAUAUGUGCGCAUACAUGGAUCCUCA
modifications: 2'-F pyrimidines
In data set [3], B23 returned an IC50 of 2.7 nM.

B24: SEQ51 aptamer (ssRNA)
RNA: GGGAGAACUUCGACCAGAAGUUUGAAAGAAACCCAAAAAAACAACAUAUGAACUAUGUGCGCAUACAUGGAUCCUCA
modifications: 2'-F pyrimidines
As to B24, in data set [3], 11.9 nM corresponded to half-maximal inhibition (IC50).

B25: SEQ54 aptamer (ssRNA)
RNA: GGGAGAACUUCGACCAGAAGUCGAAAGUGAAAGAAACUCCAACGAAAGCAUAUGUGCGCAUACAUGGAUCCUCA
modifications: 2'-F pyrimidines
As for B25, the midpoint of inhibition in data set [3], the IC50, lay at 7.6 nM.

B26: SEQ57 aptamer (ssRNA)
RNA: GGGAGAACUUCGACCAGAAGUUUGAAAAAAACCCAAACACCGAAGCACAAAUAUGUGCGCAUACAUGGAUCCUCA
modifications: 2'-F pyrimidines
Consider B26, for which the IC50 in data set [3] came to 6.4 nM.

B27: SEQ38 aptamer (ssRNA)
RNA: GGGAGAACUUCGACCAGAAGAGAAUGAAACUCCACAAAGUACAUAAAACAUAUGUGCGCAUACAUGGAUCCUCA
modifications: 2'-F pyrimidines
Turning to B27, the IC50 in data set [3] came out at 7.3 nM.
Still for that read-out and setting: as for GGGAUAAAAAUAGAGUUUGAUAAACACCUGUAUUAAAACCC (ssRNA, 2'-F pyrimidines) [SEQ30 aptamer], the figure is 57.6 nM.

B28: SEQ30(5) (ssRNA)
RNA: GGGAUAAAAAUAGAGUUUGAUAAACACCUGUAUUAAAACCC
modifications: 2'-F pyrimidines and some purines, 2'-OMe at many purines as printed in p174, 5' and 3' idT
B28: the half-inhibitory concentration (IC50) in data set [3] was < 100 nM.

B29: SEQ30(6) (ssRNA)
RNA: B28 RNA
modifications: 2'-F pyrimidines and some purines, 2'-OMe at most purines including g1-g3 as printed in p174, 5' and 3' idT
B29 returned an IC50 in data set [3] of 58.9 nM.
In data set [3], UGUGGAGCUGCUUAAACAAGCAAGUGAAAAAAACCACA (ssRNA, 2'-F pyrimidines) [SEQ32 aptamer] registered an IC50 of 84.7 nM.
